Experimental data taken from patent US12122830 (ABL BIO, dated 2024).

Tests used:
[1] = biological target: T1, human ROR1 expressed on the cell surface (human, UniProt Q01973 30-937); assay: flow cytometry on Mino cells (MCL), C2E3 IgG at 10 µg/mL, MFI of anti-ROR1 / MFI of 2nd Ab
T1 construct: whole, on cells; On JeKo-1 and Mino cells and other cancer cell lines (endogenous) and on transfected CHO and MC38 cells; also called cell surface-expressed ROR1; CHO-human ROR1
Protocol: (§1) For the cell lines, the binding to ROR1 was analyzed with FACS (FACSCalibur, BD Biosciences) by using the anti-ROR1 antibody of the present invention.
(§2) Specifically, after disassociating each cell line and washing in PBS, the number of cells was counted and set as 2 ×10^5 cells/200 µl PBS, and then the clone C2E3 among ROR1 monoclonal antibodies prepared in Example 3 was treated in 10 µg/mL, and it was reacted at 4° C. for 1 hour. After reaction, cells were washed in PBS, and then the FITC-labeled constant region (Fc)-specific antibody (Goat anti-human IgG FITC conjugate, Fc specific, Sigma, F9512, concentration: 2.0 mg/ml) was suspended in 2 µl/1 ×10^5 cells/200 µl PBS, and it was reacted at 4° C. for 1 hour. After reaction, cells were washed in PBS, it was analyzed using a FACSCalibur device. The negative control group was treated only with the FITC-labeled constant region (Fc)-specific antibody. To compare the expression degrees of ROR1 among the cancer cell lines, the value of the result for the peak shift in the experimental group treated with the ROR1 monoclonal antibody (C2E3) of the present invention was divided by the result for the peak shift in the control group (Mean Fluorescence Intensity Ratio MFI Ratio: MFI of anti-ROR1/MFI of 2nd Ab).

[2] = biological target: T1, human ROR1 expressed on the cell surface; assay: flow cytometry on BT474 cells (breast cancer), C2E3 IgG at 10 µg/mL, MFI of anti-ROR1 / MFI of 2nd Ab
Protocol: as §1, §2

[3] = biological target: T1, human ROR1 expressed on the cell surface; assay: flow cytometry on AGS cells (gastric cancer), C2E3 IgG at 10 µg/mL, MFI of anti-ROR1 / MFI of 2nd Ab
Protocol: as §1, §2

[4] = biological target: T1, human ROR1 expressed on the cell surface; assay: flow cytometry on MDA-MB-468 cells (breast cancer), C2E3 IgG at 10 µg/mL, MFI of anti-ROR1 / MFI of 2nd Ab
Protocol: as §1, §2

[5] = biological target: T1, human ROR1 expressed on the cell surface; assay: flow cytometry on SNU-1750 cells (gastric cancer), C2E3 IgG at 10 µg/mL, MFI of anti-ROR1 / MFI of 2nd Ab
Protocol: as §1, §2

[6] = biological target: T2, mouse ROR1 expressed on the cell surface (CHO-mouse ROR1) (mouse, UniProt Q9Z139 30-937); assay: flow cytometry on CHO cells transiently overexpressing mouse ROR1, FITC anti-human Fc detection, MFI ratio to 2nd Ab
T2 construct: whole, on cells; Temporarily transfected CHO cells
Protocol: For this experiment, the degree of binding of the anti-ROR1 antibody and ROR1 was measured by using FACSCalibur (BD Biosciences) device with the cell lines as follows, the cell lines artificially overexpressing the ROR1 protein by transfecting an ROR1 gene temporarily (CHO-human ROR1, CHO-human ROR2, CHO-mouse ROR1) or stably (MC38-human ROR1) (FIG. 5 and FIG. 7, respectively) or the cell lines expressing ROR1 (JeKo-1, Mino) (FIG. 6) or a cell line not expressing ROR1 (MCF7) (FIG. 6). […] JeKo-1, Mino, CHO-human ROR1, CHO-mouse ROR1 and MC38-human ROR1 are all cell lines expressing human ROR1 or mouse ROR1.
Specifically, after disassociating each cell line and washing in PBS, the number of cells was counted and set as 2×10^5 cells/200 µl PBS, and then each ROR1 monoclonal antibody in Example 3 was prepared in 10 µg/mL or as 5 fold-diluted from 10 µg/mL, and was reacted at 4° C. for 1 hour. After reaction, cells were washed in PBS and then the FITC-labeled constant region (Fc)-specific antibody (Goat anti-human IgG FITC conjugate, Fc specific, Sigma, F9512, concentration: 2.0 mg/ml) was suspended in 2 µl/1×10^5 cells/200 µl PBS, and it was reacted at 4° C. for 1 hours. The confirmation of expression degree of human ROR1, human ROR2 and mouse ROR1 that were temporarily overexpressed was analyzed by using a commercially available antibody for FACS analysis (anti-ROR1: R&D Systems, FAB2000G, anti-ROR2: R&D, FAB20641P). After reaction, cells were washed in PBS and decoded by using a FACSCalibur device. The negative control group (2nd Ab) was treated only with the FITC-labeled constant region (Fc)-specific antibody. The result for the peak shift in the experimental group treated with each ROR1 monoclonal antibody was compared to the result for the shift in the control group (Mean Fluorescence Intensity Ratio, MFI Ratio: MFI of anti-ROR1/MFI of 2nd Ab).

[7] = biological target: T1, human ROR1 expressed on the cell surface; assay: flow cytometry on NCI-N87 cells (gastric cancer), C2E3 IgG at 10 µg/mL, MFI of anti-ROR1 / MFI of 2nd Ab
Protocol: as §1, §2

[8] = biological target: T1, human ROR1 expressed on the cell surface; assay: flow cytometry on HT29 cells (colon cancer), C2E3 IgG at 10 µg/mL, MFI of anti-ROR1 / MFI of 2nd Ab
Protocol: as §1, §2

[9] = biological target: T1, human ROR1 expressed on the cell surface; assay: flow cytometry on HCC1937 cells (breast cancer), C2E3 IgG at 10 µg/mL, MFI of anti-ROR1 / MFI of 2nd Ab
Protocol: as §1, §2

[10] = biological target: T1, human ROR1 expressed on the cell surface; assay: flow cytometry on NCI-H1975 cells (lung cancer), C2E3 IgG at 10 µg/mL, MFI of anti-ROR1 / MFI of 2nd Ab
Protocol: as §1, §2

[11] = biological target: T1, human ROR1 expressed on the cell surface; assay: flow cytometry on H460 cells (lung cancer), C2E3 IgG at 10 µg/mL, MFI of anti-ROR1 / MFI of 2nd Ab
Protocol: as §1, §2

T1 sequence (Q01973 30-937): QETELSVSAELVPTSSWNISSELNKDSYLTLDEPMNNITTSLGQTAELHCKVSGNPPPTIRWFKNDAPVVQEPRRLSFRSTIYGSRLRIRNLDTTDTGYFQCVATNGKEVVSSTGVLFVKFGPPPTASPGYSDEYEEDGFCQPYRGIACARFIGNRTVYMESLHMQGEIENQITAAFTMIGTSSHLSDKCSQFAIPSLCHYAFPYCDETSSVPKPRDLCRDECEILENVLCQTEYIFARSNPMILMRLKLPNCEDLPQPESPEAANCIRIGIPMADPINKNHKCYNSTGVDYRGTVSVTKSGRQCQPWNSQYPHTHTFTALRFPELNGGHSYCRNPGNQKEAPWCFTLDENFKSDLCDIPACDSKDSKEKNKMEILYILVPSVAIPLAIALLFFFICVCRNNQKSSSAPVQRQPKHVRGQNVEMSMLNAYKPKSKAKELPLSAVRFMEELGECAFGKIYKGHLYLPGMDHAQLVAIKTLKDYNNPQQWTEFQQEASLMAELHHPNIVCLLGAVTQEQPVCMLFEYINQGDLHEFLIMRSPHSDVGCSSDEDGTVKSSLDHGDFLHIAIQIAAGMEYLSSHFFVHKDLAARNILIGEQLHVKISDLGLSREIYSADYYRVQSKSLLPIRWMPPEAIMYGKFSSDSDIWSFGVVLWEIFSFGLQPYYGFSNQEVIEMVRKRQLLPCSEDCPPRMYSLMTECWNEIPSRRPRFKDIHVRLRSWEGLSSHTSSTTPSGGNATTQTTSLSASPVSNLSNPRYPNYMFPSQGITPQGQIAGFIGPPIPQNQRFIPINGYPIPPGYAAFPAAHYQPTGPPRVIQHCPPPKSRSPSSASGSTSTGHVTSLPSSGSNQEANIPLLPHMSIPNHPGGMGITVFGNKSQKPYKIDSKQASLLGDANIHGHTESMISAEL
T2 sequence (Q9Z139 30-937): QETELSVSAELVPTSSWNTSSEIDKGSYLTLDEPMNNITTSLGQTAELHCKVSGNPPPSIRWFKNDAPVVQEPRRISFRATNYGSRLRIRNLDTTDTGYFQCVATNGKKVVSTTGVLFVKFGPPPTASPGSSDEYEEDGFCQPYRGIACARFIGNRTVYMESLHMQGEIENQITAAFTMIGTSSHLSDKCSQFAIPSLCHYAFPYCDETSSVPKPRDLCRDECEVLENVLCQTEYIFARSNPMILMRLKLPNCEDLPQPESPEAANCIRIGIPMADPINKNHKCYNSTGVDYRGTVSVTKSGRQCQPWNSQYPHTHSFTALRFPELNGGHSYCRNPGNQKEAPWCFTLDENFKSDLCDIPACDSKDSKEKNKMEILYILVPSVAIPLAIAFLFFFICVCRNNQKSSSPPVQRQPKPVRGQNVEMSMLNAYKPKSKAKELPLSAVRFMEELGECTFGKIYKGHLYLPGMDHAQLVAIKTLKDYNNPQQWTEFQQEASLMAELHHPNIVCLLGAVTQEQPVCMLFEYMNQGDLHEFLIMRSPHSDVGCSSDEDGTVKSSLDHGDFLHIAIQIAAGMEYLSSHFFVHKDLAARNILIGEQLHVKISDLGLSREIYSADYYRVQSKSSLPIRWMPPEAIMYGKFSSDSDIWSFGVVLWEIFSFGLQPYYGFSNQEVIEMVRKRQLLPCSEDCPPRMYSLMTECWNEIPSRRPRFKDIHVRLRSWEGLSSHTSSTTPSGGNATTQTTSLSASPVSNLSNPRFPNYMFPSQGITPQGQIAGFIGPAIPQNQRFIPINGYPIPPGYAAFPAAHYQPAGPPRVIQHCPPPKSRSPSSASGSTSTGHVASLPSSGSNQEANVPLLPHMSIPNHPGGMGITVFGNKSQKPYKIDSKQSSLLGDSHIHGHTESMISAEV

Mean Fold Ratio [1]: 7.2
Mean Fold Ratio [2]: 1.7
Mean Fold Ratio [3]: 12.3
Mean Fold Ratio [4]: 6.4
Mean Fold Ratio [5]: 3.9
binding result [6]: binds
Mean Fold Ratio [7]: 11.8
Mean Fold Ratio [8]: 3.9
Mean Fold Ratio [9]: 2.7
Mean Fold Ratio [10]: 4.2
Mean Fold Ratio [11]: 10.9
B1: C2E3 anti-ROR1 IgG antibody (antibody, V domains shown)
VH: EVQLLESGGGLVQPGGSLRLSCAASGFTFSNYAMSWVRQAPGKGLEWVSSISHNSGSTYYADSVKGRFTISRDNSKNTLYLQMNSLRAEDTAVYYCAKFISARKSLGRSYSNGMDVWGQGTLVTVSS
VL: QSVLTQPPSASGTPGQRVTISCTGSSSNIGSNDVTWYQQLPGTAPKLLIYADSKRPSGVPDRFSGSKSGTSASLAISGLRSEDEADYYCGTWDYSLSGYVFGGGTKLTVLG
